This note sets out measurements from patent US20090118183A1 (AFFYMAX, published 2009).

The target in experiment [1] is T1, chimeric receptor comprising the extra-cellular portion of the human EPO receptor to the intra-cellular … (human, UniProt P19235 25-250; Q99062 651-836, limits assumed).
T1 sequence (looked up): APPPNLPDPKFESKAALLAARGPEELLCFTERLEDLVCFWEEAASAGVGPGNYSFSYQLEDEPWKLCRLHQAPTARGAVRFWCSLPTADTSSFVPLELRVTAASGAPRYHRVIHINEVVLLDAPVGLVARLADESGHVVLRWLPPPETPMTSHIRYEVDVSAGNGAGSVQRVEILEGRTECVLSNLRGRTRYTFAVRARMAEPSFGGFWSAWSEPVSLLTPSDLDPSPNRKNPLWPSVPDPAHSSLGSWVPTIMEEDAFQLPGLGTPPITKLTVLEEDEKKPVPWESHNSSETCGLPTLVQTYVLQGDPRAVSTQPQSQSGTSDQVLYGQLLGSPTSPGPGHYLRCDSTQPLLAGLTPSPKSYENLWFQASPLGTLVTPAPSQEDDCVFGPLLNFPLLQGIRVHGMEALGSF
In words: cell-based or functional assay.

Experiment [2] concerns the target T2, human EPO-R (human, UniProt P19235 25-508).
T2 sequence (looked up): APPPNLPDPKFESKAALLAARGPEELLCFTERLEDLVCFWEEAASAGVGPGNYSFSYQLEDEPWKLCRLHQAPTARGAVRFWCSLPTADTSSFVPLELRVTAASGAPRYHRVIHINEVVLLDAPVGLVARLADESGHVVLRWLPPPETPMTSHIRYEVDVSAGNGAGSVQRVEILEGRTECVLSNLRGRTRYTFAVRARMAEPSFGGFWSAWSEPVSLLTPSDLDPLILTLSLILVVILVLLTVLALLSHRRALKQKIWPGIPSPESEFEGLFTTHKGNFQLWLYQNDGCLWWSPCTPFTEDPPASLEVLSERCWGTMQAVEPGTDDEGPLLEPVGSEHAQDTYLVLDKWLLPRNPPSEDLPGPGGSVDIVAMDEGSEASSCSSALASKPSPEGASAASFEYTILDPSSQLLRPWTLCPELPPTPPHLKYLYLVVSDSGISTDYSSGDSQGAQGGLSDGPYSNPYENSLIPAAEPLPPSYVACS
In words: cell-based or functional assay.

Experiment [3] has as its target recombinant EPO-R (produced in Chinese Hamster Ovary cells as a fusion protein to a portion of the human … (human, UniProt P05187 489-506)). Put plainly: competitive binding; column headed only 'IC50 (pM)'; taken as the AQ bead proximity assay against the biotinylated peptide tracer (SEQ ID NO: 4) per paragraph 299.
The target in experiment [4] is T1, chimeric receptor comprising the …. In words: cell-based or functional assay. The source holds these as a separate data set.
In experiment [5] the target is T2, human EPO-R. Put plainly: cell-based or functional assay. This is another data set of the same source.
For experiment [6], the target named is T3, Recombinant Human EPO R/Fc Chimera (human, UniProt P19235 25-250).
T3 construct: extracellular domain; Bought reagent (R&D Systems, catalog 963-ER); also called recombinant EPOr extracellular domain fused to the Fc portion of human IgG1; recombinant erythropoietin receptor; not shown: Fc portion of human IgG1
T3 sequence (looked up): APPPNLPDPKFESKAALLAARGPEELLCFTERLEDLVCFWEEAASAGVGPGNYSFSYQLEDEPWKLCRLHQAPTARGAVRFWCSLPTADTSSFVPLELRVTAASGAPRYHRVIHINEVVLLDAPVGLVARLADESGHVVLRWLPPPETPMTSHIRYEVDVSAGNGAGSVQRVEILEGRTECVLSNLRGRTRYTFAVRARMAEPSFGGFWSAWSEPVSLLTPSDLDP
In words: radioligand competition: displacement of 125I-EPO from recombinant human EPO R/Fc, Protein-G Sepharose pull-down.

Where two headings read alike, the source gives them in different places. Bridge positions count the residues as written; N and C are the ends. Square brackets hold non-standard residues; d marks the D form. Ends that are not written are not given here. 1Nal = N[C@@H](Cc1cccc2ccccc12)C(=O)O; Sar = CNCC(=O)O

B1: Peptide III (SEQ ID NO: 3) (peptide)
peptide: Ac-GGLYACHMGPIT[1Nal]VCQPLR[Sar]
modifications: disulfide 6-15; also: homodimer: C-termini joined to alpha- and epsilon-amino groups of a lysine linker carrying spacer and PEG, not shown
For the molecule B1, the “Reporter EC50 (pM)” value in experiment [1] turned out to be 150 pM. In addition, in the experiment with human EPO-R [2], the “Proliferation EC50” value came to 72 nM.

B2: Peptide II (SEQ ID NO: 3) (peptide)
peptide: Ac-GGLYACHMGPIT[1Nal]VCQPLR[Sar]
modifications: disulfide 6-15; also: homodimer: C-termini joined to alpha- and epsilon-amino groups of a lysine linker carrying spacer and PEG, not shown
With B2, the IC50 in experiment [3] amounted to 0.11 nM.

B3: Peptide I (SEQ ID NO: 2) (peptide)
peptide: Ac-GGLYACHMGPIT[1Nal]VCQPLR[Sar]K
modifications: disulfide 6-15; not fully specified (residue 21); printed as (AcG)GLYACHMGPIT(1-nal)VCQPLR(MeG)K; also: homodimer, Lys21 epsilon-N joined to branched tertiary amide linker carrying PEG
notes: also called Peptide 1
B3: in experiment [4], the “Reporter EC50 (pM)” value was 195 pM. In addition, the “Proliferation EC50 (pM)” value with human EPO-R [5] stood at 165 pM. Further, the IC50 in experiment [6] came out at 0.111 nM.
